Molecular target: human CCR10 (human) (UniProt P46092)
Assay: cell-based or functional assay

human CCR10 (human), sequence (P46092 whole entry): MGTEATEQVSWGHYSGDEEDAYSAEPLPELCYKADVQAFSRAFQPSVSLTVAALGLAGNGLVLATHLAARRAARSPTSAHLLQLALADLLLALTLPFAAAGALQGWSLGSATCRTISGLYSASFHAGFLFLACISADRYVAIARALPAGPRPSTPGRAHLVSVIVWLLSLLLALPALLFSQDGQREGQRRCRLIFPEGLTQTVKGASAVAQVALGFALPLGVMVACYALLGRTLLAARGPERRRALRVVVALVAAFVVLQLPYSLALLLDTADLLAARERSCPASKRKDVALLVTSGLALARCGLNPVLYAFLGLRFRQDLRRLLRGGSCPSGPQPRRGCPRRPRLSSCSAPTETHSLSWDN

Substance | IC50 (nM) Calcium Flux Assay [nM] | IC50 (nM) Chemotaxis Assay [nM]
cyclo(-2Nal-Cyp-Trp-Dab-^DPip-Pip-) (peptide) | 43.2 | 9.7
cyclo(-2Nal-Cyp-Trp-Gln-^DPro-Tic-) (peptide) | 9.2 | 2
cyclo(-Bbta-Cyp-Trp-Dab-^DPro-Oic-) (peptide) | 220 | 18.9
cyclo(-Bip-Cyp-Trp-Dab-^DPro-Oic-) (peptide) | 8.1 | 1.8
cyclo(-Cha-Cyp-Trp-Dab-^DPro-Oic-) (peptide) | 243 | –
cyclo(-Nle(6OBn)-Cyp-Trp-Dab-^DPro-Oic-) (peptide) | – | 16.6
cyclo(-OctG-Cyp-Trp-Dab-^DPro-Oic-) (peptide) | 40.4 | 4.2
cyclo(-Phe(3CF3)-Cyp-Trp-Dab-^DPro-Oic-) (peptide) | 41.1 | 3.2
cyclo(-Phe(4CF3)-Cyp-Trp-3Pal-^DPic-Oic-) (peptide) | 63.2 | 2.7
cyclo(-Phe(4CF3)-Cyp-Trp-Dab-^DPip-Pro((4R)Ph)-) (peptide) | 14.8 | 22
cyclo(-Phe(4CF3)-Cyp-Trp-Dab-^DPro-Hyp(4BrBn)-) (peptide) | 22.6 | –
cyclo(-Phe(4CF3)-Cyp-Trp-Dab-^DPro-Oic-) (peptide) | 58.1 | 13.4
cyclo(-Phe(4CN)-Cyp-Phe(4F)-Ser-^DPro-Hyp(Bn)-) (peptide) | 1.9 | 13.5
cyclo(-Phe(4CN)-Cyp-Trp-Dab-^DPro-Hyp(Bn)-) (peptide) | 181 | 5.3
cyclo(-Phe(4CN)-Cyp-Trp-Dab-^DPro-Oic-) (peptide) | 280 | 48
cyclo(-Phe(4CN)-Cyp-Trp-Gln-^DPro-Hyp(Bn)-) (peptide) | 21.7 | –
cyclo(-Phe(4CN)-Cyp-Trp-Ser-^DPip-Hyp(Bn)-) (peptide) | 0.5 | 1.8
cyclo(-Phe(4CN)-Cyp-Trp-Ser-^DPro-Hyp(4BrBn)-) (peptide) | 5.3 | 0.6
cyclo(-Phe(4CN)-Cyp-Trp-Ser-^DPro-Oic-) (peptide) | 80.3 | –
cyclo(-Phe(4COOMe)-Cyp-Trp-Dab-^DPro-Oic-) (peptide) | 476 | 14.7
cyclo(-Trp(5OH)-Chx-Trp(5OH)-Arg-^DPro-Oic-) (peptide) | 548 | 11.6
cyclo(-Trp(5OH)-Cyp-Trp(5OH)-Dap-^DPro-Oic-) (peptide) | 246 | –
cyclo(-Trp(5OH)-Cyp-Trp-Arg-^DPro-Thz(5,5Me2)-) (peptide) | 214 | 109
cyclo(-Trp(5OH)-Cyp-Trp-Arg-^DPro-Tic-) (peptide) | 52.5 | –
cyclo(-Trp(5OH)-Cyp-Trp-Gln-^DPro-Thz-) (peptide) | 144 | 3.1
cyclo(-Trp(6Cl)-Cyp-Trp-Dab-^DPro-Hyp(Bn)-) (peptide) | 8.5 | 8.6
cyclo(-Trp(6Cl)-Cyp-Trp-Ser-^DPro-Oic-) (peptide) | 6.3 | 5
cyclo(-Trp-4,4-AC-ThioTHP-Trp-Dab-^DPro-Oic-) (peptide) | 823 | 21.9

Substance | IC50 (nM) Calcium Flux Assay [nM] | IC50 (nM) Chemotaxis Assay [nM]
cyclo(-Trp-Ac7c-Trp-Dab-^DPro-Oic-) (peptide) | 393 | 7.2
cyclo(-Trp-Ac8c-Trp-Dab-^DPro-Oic-) (peptide) | 706 | 257
cyclo(-Trp-Chx(4-oxo)-Trp-Dab-^DPro-Oic-) (peptide) | 262 | 17.8
cyclo(-Trp-Chx-Trp-Dab-^DPro-Oic-) (peptide) | 333 | 3.1
cyclo(-Trp-Cyp-2Nal-Dab-^DPip-Oic-) (peptide) | 70.5 | –
cyclo(-Trp-Cyp-2Nal-Gln-^DPro-Oic-) (peptide) | 35.3 | –
cyclo(-Trp-Cyp-Ala(2Furyl)-Dab-^DPro-Oic-) (peptide) | 132 | –
cyclo(-Trp-Cyp-Ala(2Quin)-Dab-^DPro-Oic-) (peptide) | 283 | 30.3
cyclo(-Trp-Cyp-Phe(4CF3)-Dab-^DPro-Oic-) (peptide) | 58.6 | 38.7
cyclo(-Trp-Cyp-Phe(4Cl)-Dab-^DPro-Hyp(Bn)-) (peptide) | 39.9 | –
cyclo(-Trp-Cyp-Phe(4Cl)-Ser-^DPro-Oic-) (peptide) | 6.1 | 2.7
cyclo(-Trp-Cyp-Phe(4F)-Dab-^DPro-Oic-) (peptide) | 120 | –
cyclo(-Trp-Cyp-Phe(4F)-Ser-^DPro-Oic-) (peptide) | 8.8 | 12
cyclo(-Trp-Cyp-Trp-Ala(Ppz)-^DPro-Oic-) (peptide) | 1060 | 16.4
cyclo(-Trp-Cyp-Trp-Arg-^DAze-Tic-) (peptide) | 70.4 | –
cyclo(-Trp-Cyp-Trp-Arg-^DPro-Thz-) (peptide) | 70.6 | –
cyclo(-Trp-Cyp-Trp-Arg-^DPro-Tic(7OH)-) (peptide) | 78.5 | –
cyclo(-Trp-Cyp-Trp-Dab(4Me2NPhSO2)-^DPro-Oic-) (peptide) | 6.4 | –
cyclo(-Trp-Cyp-Trp-Dab((MeO(CH2)2)(Me)NCO)-^DPro-Oic-) (peptide) | 8.1 | 5.6
cyclo(-Trp-Cyp-Trp-Dab(Ac)-^DPro-Oic-) (peptide) | 30.3 | 4.8
cyclo(-Trp-Cyp-Trp-Dab(Dab)-^DPro-Oic-) (peptide) | 567 | 50.2
cyclo(-Trp-Cyp-Trp-Dab(MEMCO)-^DPro-Oic-) (peptide) | 62.8 | 11.5
cyclo(-Trp-Cyp-Trp-Dab(MeO(CH2)2NHCO)-^DPro-Oic-) (peptide) | 24.2 | 5.3
cyclo(-Trp-Cyp-Trp-Dab(MePpzCO)-^DPro-Oic-) (peptide) | 53.9 | 5.3
cyclo(-Trp-Cyp-Trp-Dab(MeSO2)-^DPro-Oic-) (peptide) | 0.2 | 3.4
cyclo(-Trp-Cyp-Trp-Dab(morphCO)-^DPro-Oic-) (peptide) | 3 | 11.1
cyclo(-Trp-Cyp-Trp-Dab-^DAze-Tic-) (peptide) | 57 | –
